Measurements reported in US8247194 (Amgen, dated 2012).

Columns and labels:
[1] = molecular target: T1, recombinant human GM-CSF (rhGM-CSF), produced in E. coli (human, UniProt P04141 18-144); assay: SPR, rhGM-CSF coated chip, 1:1 Langmuir fit, analyte 3120 nM; analyte concentration 3120 nM
T1 construct: The ELISA of 2.5.2 and the TF-1 proliferation assays say only rhGM-CSF without naming the preparation; they are assigned to this molecule; also called human GM-CSF antigen; recombinant human granulocyte macrophage colony stimulating factor
T1 sequence (P04141 18-144 limits assumed): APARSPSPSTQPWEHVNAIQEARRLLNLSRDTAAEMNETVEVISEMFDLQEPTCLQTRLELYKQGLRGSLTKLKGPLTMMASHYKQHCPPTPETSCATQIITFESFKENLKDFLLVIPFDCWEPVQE

[2] = molecular target: T1, recombinant human GM-CSF (rhGM-CSF), …; assay: SPR, rhGM-CSF coated chip, 1:1 Langmuir fit, analyte 12.8 nM
[3] = molecular target: T1, recombinant human GM-CSF (rhGM-CSF), …; assay: SPR, rhGM-CSF coated chip, 1:1 Langmuir fit, analyte 38.5 nM
[4] = molecular target: T1, recombinant human GM-CSF (rhGM-CSF), …; assay: cell-based or functional assay
[5] = molecular target: T1, recombinant human GM-CSF (rhGM-CSF), …; assay: SPR, purified SCA over rhGM-CSF coated chip, 1:1 Langmuir fit
Experimental: FIG. 36A, B: Kinetic binding analysis of SCA leads derived from the method of the invention, as determined by SPR. Binding kinetics (kd and ka) of the SCA leads were measured injecting 10 μL of purified protein in dilution series ranging from 10 μg/mL to 1 pg/mL purified SCA onto a rhGM-CSF coated sensor chip surface. The dissociation was monitored at 25° C. for 100 sec. Data were fitted using BIAevalution™ software determining the rate constant for dissociation (FIG. 36B) and association (FIG. 36A) kinetics. The residuals corresponding to the fitted data monitoring the deviation from the raw data indicated no systematic deviation for the fit.

[6] = molecular target: T1, recombinant human GM-CSF (rhGM-CSF), …; assay: SPR, rhGM-CSF coated chip, 1:1 Langmuir fit, analyte 116 nM
[7] = molecular target: T1, recombinant human GM-CSF (rhGM-CSF), …; assay: SPR, rhGM-CSF coated chip, 1:1 Langmuir fit, analyte 3120 nM
[8] = molecular target: T1, recombinant human GM-CSF (rhGM-CSF), …; assay: SPR, rhGM-CSF coated chip, 1:1 Langmuir fit, analyte 1040 nM
[9] = molecular target: T1, recombinant human GM-CSF (rhGM-CSF), …; assay: SPR, rhGM-CSF coated chip, 1:1 Langmuir fit, analyte 347 nM

B1: half-human SCA B32oN-45 (scFv)
scFv: ELQLVEQSGAALVKPGDSVKMSCKASGYPFTDYIVHWVKQSHGKSLDWIGYINPYSGDTKFNEKFKSKATLTVDKSSSTAYMEFSRLTSEDSAIYYCARSGLIAVYFDYWGQGTTVTVSSGGGGSGGGGSGGGGSELVMTQSPSSVSASVGDRVTIACRASQNIRNILNWYQQRPGKAPQLLIYAASNLQSGVPSRFSGSGSGTDFTLTINSLQPEDFATYYCQQSYSMPRTFGGGTKVEIKTGDYKDDDDKHHHHHH
notes: Expressed from pComb3H5BFlag/His, which adds the Flag-tag between the SCA and the His6-tag; As a lead it was purified by IMAC and gel filtration; also called maternal SCA B32oN-45
**Q.** How did the Kd [1] turn out when B1 was run?
**A.** 94.6 nM

**Q.** And the Ka [2]?
**A.** 3.25e+08 M⁻¹

**Q.** What about the Kd [2] of the same binder?
**A.** 3.07 nM

**Q.** What about the koff [2] of the same binder?
**A.** 0.00384 s⁻¹

**Q.** What about the kon [2] of the same binder?
**A.** 1.25e+06 M⁻¹ s⁻¹

**Q.** And the Ka [3]?
**A.** 2.2e+08 M⁻¹

**Q.** What about the Kd [3] of the same binder?
**A.** 4.55 nM

**Q.** And the koff [3]?
**A.** 0.00444 s⁻¹

**Q.** What about the kon [3] of the same binder?
**A.** 975000 M⁻¹ s⁻¹

**Q.** What about the “half maximal inhibition constant (IC50), rhGM-CSF dependent proliferation of TF-1 cells” value [4] of the same binder?
**A.** 6 nM

**Q.** And the Kd [5]?
**A.** 50 nM

**Q.** What about the Ka [6] of the same binder?
**A.** 1.66e+08 M⁻¹

**Q.** And the Kd [6]?
**A.** 6.01 nM

**Q.** And the koff [6]?
**A.** 0.00464 s⁻¹

**Q.** What about the kon [6] of the same binder?
**A.** 772000 M⁻¹ s⁻¹

**Q.** What about the Ka [7] of the same binder?
**A.** 1.06e+07 M⁻¹

**Q.** And the koff [7]?
**A.** 0.00514 s⁻¹

**Q.** What about the kon [7] of the same binder?
**A.** 54300 M⁻¹ s⁻¹

**Q.** And the Ka [8]?
**A.** 1.89e+07 M⁻¹

**Q.** What about the Kd [8] of the same binder?
**A.** 52.8 nM

**Q.** What about the koff [8] of the same binder?
**A.** 0.0046 s⁻¹

**Q.** What about the kon [8] of the same binder?
**A.** 87100 M⁻¹ s⁻¹

**Q.** And the Ka [9]?
**A.** 9.22e+07 M⁻¹

**Q.** What about the Kd [9] of the same binder?
**A.** 10.8 nM

**Q.** And the koff [9]?
**A.** 0.00477 s⁻¹

**Q.** What about the kon [9] of the same binder?
**A.** 440000 M⁻¹ s⁻¹
